Experimental findings from patent publication US20210205286A1 are described below.

The target of experiment [1] is USP7 (endogenous) (UniProt Q93009). Briefly: APEX2-Gal9 proximity biotinylation, SILAC LC-MS/MS, LLOMe; first of three experiments.
Experiment [2] has the same target. Description: APEX2-Gal9 proximity biotinylation, SILAC LC-MS/MS, LLOMe; third of three experiments.
Experiment [3] shares this target. Briefly: APEX2-Gal9 proximity biotinylation, SILAC LC-MS/MS, GPN; third of three experiments.
For experiment [4] the target is unchanged. Briefly: APEX2-Gal9 proximity biotinylation, SILAC LC-MS/MS, GPN; first of three experiments.
The target is the same in experiment [5]. Briefly: APEX2-Gal9 proximity biotinylation, SILAC LC-MS/MS, LLOMe; second of three experiments.
The target is the same in experiment [6]. Briefly: APEX2-Gal9 proximity biotinylation, SILAC LC-MS/MS, GPN; second of three experiments.

Sequence of USP7 (endogenous) (Q93009 whole entry): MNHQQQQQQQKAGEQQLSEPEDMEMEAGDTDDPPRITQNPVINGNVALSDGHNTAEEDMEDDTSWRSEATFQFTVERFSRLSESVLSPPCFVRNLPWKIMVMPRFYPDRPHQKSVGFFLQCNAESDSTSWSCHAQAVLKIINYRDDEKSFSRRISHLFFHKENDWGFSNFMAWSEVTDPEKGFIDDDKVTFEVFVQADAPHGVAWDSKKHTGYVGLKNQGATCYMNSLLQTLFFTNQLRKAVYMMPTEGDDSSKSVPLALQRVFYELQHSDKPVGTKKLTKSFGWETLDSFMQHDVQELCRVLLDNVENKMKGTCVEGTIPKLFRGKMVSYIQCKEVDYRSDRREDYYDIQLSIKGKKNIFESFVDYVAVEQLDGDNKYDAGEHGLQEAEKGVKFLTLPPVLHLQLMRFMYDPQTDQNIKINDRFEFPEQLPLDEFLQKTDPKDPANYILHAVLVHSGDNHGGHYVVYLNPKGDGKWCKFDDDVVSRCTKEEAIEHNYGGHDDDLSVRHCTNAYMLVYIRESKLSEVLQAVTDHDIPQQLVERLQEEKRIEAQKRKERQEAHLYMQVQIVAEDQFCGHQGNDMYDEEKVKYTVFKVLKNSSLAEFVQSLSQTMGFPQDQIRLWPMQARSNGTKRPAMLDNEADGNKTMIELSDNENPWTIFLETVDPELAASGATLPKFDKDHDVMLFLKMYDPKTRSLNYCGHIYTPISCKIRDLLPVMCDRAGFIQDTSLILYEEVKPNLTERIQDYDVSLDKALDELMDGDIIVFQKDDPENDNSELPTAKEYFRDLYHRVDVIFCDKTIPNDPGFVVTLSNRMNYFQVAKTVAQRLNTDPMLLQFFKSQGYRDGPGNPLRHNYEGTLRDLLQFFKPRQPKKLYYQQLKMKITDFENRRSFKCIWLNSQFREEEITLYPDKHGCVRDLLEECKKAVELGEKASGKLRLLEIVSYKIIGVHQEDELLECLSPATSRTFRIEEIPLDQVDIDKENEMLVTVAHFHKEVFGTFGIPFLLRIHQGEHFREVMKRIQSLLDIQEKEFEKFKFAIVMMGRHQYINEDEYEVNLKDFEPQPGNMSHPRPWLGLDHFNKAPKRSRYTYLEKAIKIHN

Take “APEX2-myc-Gal9 (from UniProt O00182 1-323)”: the peptide counts (peptide counts) in experiment [1] was 2; in experiment [2], 2; in experiment [3], 3; in experiment [4] it was 3; in experiment [5], 3; in experiment [6], 4.
